Assay results taken from US20200095341A1 (UNIVERSITEIT TWENTE, published 2020).
Ends that are not written are not given here.

Tests used:
hTGFB1 (Peprotech) = hTGFB1 (Peprotech) (human, UniProt P01137 279-390); assay: cell-based or functional assay
hVEGF (PeproTech) [1] = target: T1, hVEGF (PeproTech) (human, UniProt P15692-4 27-191, limits assumed); assay: immunofluorescence against hVEGF on peptide-functionalized PCL films, 1 µg/mL hVEGF
T1 construct: Commercial growth factor; also called ihVEGF; shVEGF
Procedure: (§1) Samples were incubated with 1 μg/mL of VEGF (PeproTech) in 0.5% (v/v) PBS TWEEN®20 (PBST) for one hour with gentle agitation. The films were then washed three times for 10 minutes with 0.5% (v/v) PBST and then with PBS for a further 10 minutes. Next, the films were blocked for one hour with PBS containing 1% (w/v) bovine serum albumin (BSA) and subsequently washed as described above. Afterwards, the films were incubated with a primary antibody (2 μg/mL; rabbit polyclonal anti-human VEGF, PeproTech) in the blocking solution during one hour with agitation. […] Before image acquisition, the films were washed three times for 10 minutes with 1 mM PBST, rinsed three times with PBS and dried under a N2 stream. Fluorescence intensity was quantified using ImageJ.

hVEGF (PeproTech) [2] = target: T1, hVEGF (PeproTech); assay: immunofluorescence against hVEGF on peptide-functionalized POLY-TAPE, 1 µg/mL hVEGF
Procedure: Fluorescence intensity was quantified using ImageJ. For cell experiments, the sterile PCL films were washed three times with PBS and incubated with 0.5 μg of VEGF in 0.5% (v/v) PBST for one hour with gentle agitation. Subsequently, the films were extensively washed with PBST (0.5%) and PBS to remove any traces of the washing buffer prior to cell seeding.
Incubation with hVEGF, immunofluorescence staining and fluorescence quantification was performed as mentioned above for the PCL films.
The POLY-TAPE® was oxygen plasma treated (OPT) for 5 minutes and incubated for one hour with 1 M NaOH in order to hydrolyze the esters and expose the carboxylic acids.

hVEGF (PeproTech) [3] = target: T1, hVEGF (PeproTech); assay: immunofluorescence against hVEGF on peptide-functionalized Chondro-Gide, 1 µg/mL hVEGF
Procedure: as §1
(§2) Both Chondro-Gide and Collagen Meniscus Implant (CMI) were incubated with 50 mM of NHS/EDC for 2 hours. […] Incubation with hVEGF, immunofluorescence staining and fluorescence quantification was performed as mentioned above for the PCL films.

hVEGF (PeproTech) [4] = target: T1, hVEGF (PeproTech); assay: immunofluorescence against hVEGF on peptide-functionalized Collagen Meniscus Implant, 1 µg/mL hVEGF
Procedure: as §1, §2

hBMP-2 (PeproTech) = hBMP-2 (PeproTech) (human, UniProt P12643 283-396); assay: cell-based or functional assay
endogenous BMP-2 (rat) = target: T2, endogenous BMP-2 (rat) (rat, UniProt P49001 280-393, limits assumed); assay: immunofluorescence against BMP-2 of PCL films implanted subcutaneously in rats for 7 days
T2 construct: also called BMP-2 released during inflammation
T2 sequence (P49001 280-393 limits assumed): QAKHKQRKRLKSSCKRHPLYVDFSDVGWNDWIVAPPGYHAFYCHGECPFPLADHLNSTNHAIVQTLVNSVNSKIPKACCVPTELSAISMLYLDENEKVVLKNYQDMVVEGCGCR
Source text: Both native and functionalized PCL films were subcutaneously implanted in the back of rats, facing the fascia. Each animal, with a total of three animals per time point, was implanted with both native and functionalized film. At day 3 and day 7 after implantation, samples were harvested and used for immunofluorescence against BMP-2 and for histology. Only the samples from day 7 were used for immunofluorescence against BMP-2.

T1 sequence (P15692 other isoform, or with tags, fused parts or gaps limits assumed): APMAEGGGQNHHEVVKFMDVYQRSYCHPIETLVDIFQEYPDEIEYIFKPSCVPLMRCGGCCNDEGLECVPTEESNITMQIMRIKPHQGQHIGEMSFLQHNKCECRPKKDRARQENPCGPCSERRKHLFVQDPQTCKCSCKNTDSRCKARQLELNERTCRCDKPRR
Chain of hBMP-2 (PeproTech) (P12643 283-396 limits assumed): as the sequence (P49001 280-393 limits assumed) above
Chain of hTGFB1 (Peprotech) (P01137 279-390 limits assumed): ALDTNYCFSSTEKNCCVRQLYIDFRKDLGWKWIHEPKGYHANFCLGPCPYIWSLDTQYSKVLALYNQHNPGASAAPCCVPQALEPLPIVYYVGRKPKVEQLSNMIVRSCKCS

B1: TGFB1 binding peptide KGLPLGNSH (peptide)
peptide: Ac-KGLPLGNSH-NH2
modifications: not fully specified (residue 1); also: lysine side chain covalently coupled to PCL film
- luciferase activity of TGFB1 reporter cell line (MLEC, PAI-1 promoter), fold over same films without hTGFB1 incubation (hTGFB1 (Peprotech)): 9 fold

B2: VEGF-binding peptide KGSWWAPFH (peptide)
peptide: Ac-KGSWWAPFH
modifications: not fully specified (residue 1); also: lysine side chain covalently coupled to film or device
notes: also called SWWAPFH with an extra glycine and lysine at the N-termini
- fluorescence intensity, fold over non-functionalized films incubated with hVEGF (hVEGF (PeproTech) [1]): 7 fold
- fluorescence signal, fold over native POLY-TAPE with hVEGF (hVEGF (PeproTech) [2]): 2.3 fold
- fluorescence signal, fold over oxygen plasma treated POLY-TAPE with hVEGF (hVEGF (PeproTech) [2]): 1.5 fold
- fluorescence signal, fold over Chondro-Gide functionalized with NHS/EDC and incubated with hVEGF (hVEGF (PeproTech) [3]): 2.2 fold
- fluorescence signal, fold (reference taken as native CMI incubated with hVEGF) (hVEGF (PeproTech) [4]): 3.3 fold

B3: BMP-2-binding peptide KGYPVHPST (peptide)
peptide: Ac-KGYPVHPST
modifications: not fully specified (residue 1); also: lysine side chain covalently coupled to film or tape
notes: also called YPVHPST with an extra glycine and lysine at the N-termini
- ALP produced by C2C12 after 7 days, fold over controls; functionalized films incubated with 5.0 µg hBMP-2 (hBMP-2 (PeproTech)): 12.7 fold
- ALP production by C2C12, ratio to hBMP-2 nonspecifically adsorbed on native films (hBMP-2 (PeproTech)): 2.4 fold
- luciferase of BMP-2 reporter cell line (C2C12 Luc), fold increase; films incubated with 500 ng hBMP-2 (hBMP-2 (PeproTech)): 5.3 fold
- luciferase of BMP-2 reporter cell line (C2C12 Luc, ID1 promoter), normalized to films without hBMP-2; films incubated with 500 ng hBMP-2 (hBMP-2 (PeproTech)): 10.4 fold (normalized luciferase)
- binding result (endogenous BMP-2 (rat)): binds

B4: scrambled peptide KGHNLGLPS (peptide)
peptide: Ac-KGHNLGLPS-NH2
modifications: not fully specified (residue 1); also: lysine side chain covalently coupled to PCL film
- luciferase activity of TGFB1 reporter cell line (MLEC, PAI-1 promoter), fold over same films without hTGFB1 incubation (hTGFB1 (Peprotech)): 3 fold
